Here are results for 1 molecule from patent US6953661 (WESTMEAD HOSPITAL, dated 2005).

For the test, the target named is T1, His-KHCstalk (human uKHC amino acid residues 555-772, tagged at the N-terminus with an oligohistidine … (human, UniProt P33176 555-772)).
T1 construct: range 555-772; also the antigen used to raise the chicken anti-uKHC; also called HisKHC555-772; His-KHC fragment; not shown: N-terminal oligohistidine (His) tag
T1 sequence (looked up): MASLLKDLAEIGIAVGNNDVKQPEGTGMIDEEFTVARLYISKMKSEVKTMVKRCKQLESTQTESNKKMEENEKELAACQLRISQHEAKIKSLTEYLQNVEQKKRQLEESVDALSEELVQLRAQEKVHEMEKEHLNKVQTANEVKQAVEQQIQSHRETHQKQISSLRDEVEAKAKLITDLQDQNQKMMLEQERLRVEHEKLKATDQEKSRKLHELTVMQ
Description: pull-down on nickel-activated beads, immunoblot.

B1: untagged US11 (recombinant HSV1 US11 with five additional amino acids MGRLE at the N-terminus, expressed in Escherichia coli) (other)
chain: MGRLEMSQTQPPAPVGPGDPDVYLKGVPSAGMHPRGVHAPRGHPRMISGPPQRGDNDQAAGQCGDSGLLRVGADTTISKPSEAVRPPTIPRTPRVPREPRVPRPPREPREPRVPRAPRDPRVPRDPRDPRQPRSPREPRSPREPRSPREPRTPRTPREPRTARGSV
notes: also called untagged US11 construct
Turning to B1, the binding result is on record as “no binding”.
